T1: S. pombe Gemin6/Gemin7/Gemin8 complex, HT-tag removed (S. pombe, UniProt G2TRK8 1-93; G2TRR1 1-91; Q9USY8 1-166)
T1 sequence 1: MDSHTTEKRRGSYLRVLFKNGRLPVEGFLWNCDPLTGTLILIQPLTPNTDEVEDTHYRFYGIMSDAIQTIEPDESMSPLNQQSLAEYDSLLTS
T1 sequence 2: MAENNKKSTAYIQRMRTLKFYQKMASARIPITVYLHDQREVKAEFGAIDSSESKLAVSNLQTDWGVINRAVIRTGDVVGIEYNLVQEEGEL
T1 sequence 3: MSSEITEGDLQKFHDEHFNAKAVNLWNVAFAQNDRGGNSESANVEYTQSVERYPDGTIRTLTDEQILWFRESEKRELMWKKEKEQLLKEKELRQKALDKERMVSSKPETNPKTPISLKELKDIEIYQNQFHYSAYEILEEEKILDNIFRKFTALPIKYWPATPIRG

T2: S. pombe Gemin2/HT-SMNp complex (S. pombe, UniProt P0CU08 1-235; Q09808 1-35)
T2 sequence 1: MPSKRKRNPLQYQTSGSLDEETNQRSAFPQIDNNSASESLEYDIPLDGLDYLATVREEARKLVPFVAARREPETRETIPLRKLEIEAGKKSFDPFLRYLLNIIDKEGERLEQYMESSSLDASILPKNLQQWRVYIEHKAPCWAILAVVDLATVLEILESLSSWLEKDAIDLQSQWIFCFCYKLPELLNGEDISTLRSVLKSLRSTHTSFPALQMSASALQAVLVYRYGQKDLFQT
T2 sequence 2: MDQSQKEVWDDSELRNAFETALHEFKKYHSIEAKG

B1: S. pombe SMN, full length, HT-tag removed (natural protein)
chain: MDQSQKEVWDDSELRNAFETALHEFKKYHSIEAKGGVSDPDSRLDGEKLISAARTEESISKLEEGEQMINQQTETTLEGDTHIQQFADNKGLSDEKPETRAAETHQEFMEVPPPIRGLTYDETYKKLIMSWYYAGYYTGLAEGLAKSEQRKD
B2: S. pombe SmD3 (1-83)/SmB (1-93) subcomplex, HT-tag removed (complex)
chain 1: MSLCIKLLHETQGHIVTMELENGSTYRGKLIEAEDNMNCQMRDISVTARDGRVSHLDQVYIRGSHIRFLIVPDMLRNAPMFKV
chain 2: MGTTKMVSLLNHSLNVTTKDGRTFVGQLLAFDGFMNLVLSDCQEYRHIKKQNVPSNSVYEEKRMLGLVILRGEFIVSLSVQGPPPMDPSMRGS
B3: S. pombe HT-ICln (residues 1-160) (domain or fragment)
chain: MITKIDSLPKDLIRKVENGEKLLPNQEIVYFEEKTVPYKIRSDEESFPLGKLITLLVTSQSFILFDEEQNSGWKIPYETITLHAKQSKDKPYVYVQLEGEAIRPLLDHILKFERSSGTLHEAPSTEDENEFTDDFLELTLYVTDVDSCYQALCTCQSLHP
B4: S. pombe SmF/SmE/SmG subcomplex, HT-tag removed (complex)
chain 1: not shown
chain 2: MSGRVQKVMIPPINFIFKLLQQHTPVSIWLFEQTDIRLQGQIRGFDEFMNIVLDDAVQVDAKNNKRELGRILLKGDNITLIQAI
chain 3: MSKAGAPDLKKYLDRQVFVQLNGSRKVYGVLRGYDIFLNIVLEDSIEEKVDGEKVKIGSVAIRGNSVIMIETLDKMT
B5: S. pombe SmD1/SmD2 subcomplex, HT-tag removed (complex)
chain 1: not shown
chain 2: MADLVDKPRSELSEIELARLEEYEFSAGPLSVLQQAVKNHDQVLINCRNNKKLLARVKAFDRHSNMVLENVKEMWTEKKRTASGKKGKAINKDRFISKMFLRGDGVVLVVRIPSA

In data set [1] the target is T1, S. pombe Gemin6/Gemin7/Gemin8 complex, …. The data set is described as follows: SEC. A general note: SEC sorts molecules by how far they enter the pores of the column.
The target in data set [2] is B3. The data set is described as follows: pull-down.
For data set [3], the target named is S. pombe SmD1/HT-SmD2 subcomplex (S. pombe, UniProt O42661 1-117; O14036 1-115). The data set is described as follows: SEC + other: ion-exchange chromatography.
Data set [4] concerns the target B5. The data set is described as follows: SEC.
Data set [5] has as its target B2. The data set is described as follows: SEC.
The target of data set [6] is T2, S. pombe Gemin2/HT-SMNp complex. Kind of data set: pull-down.
The data set “SEC” deals with the molecule itself. The data set is described as follows: SEC.
Data set [7] deals with T2, S. pombe Gemin2/HT-SMNp complex. The data set is described as follows: pull-down. The source holds these as a separate data set.
The target of data set [8] is B3. The data set is described as follows: pull-down. This is another data set of the same source.

The stoichiometry N is a count of units in the complex or per binding partner.

Chain of S. pombe SmD1/HT-SmD2 subcomplex (O42661 whole entry, one chain of several): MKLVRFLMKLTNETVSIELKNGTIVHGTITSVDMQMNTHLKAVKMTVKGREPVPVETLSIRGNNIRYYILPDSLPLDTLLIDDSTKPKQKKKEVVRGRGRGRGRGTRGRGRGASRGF

As for B1, in [1], the binding result is “binds”.

On to B2, for which, in [2], the percent bound is 88.9%.

With B3, the binding result in data set [3], in data set [4] and in data set [5] was “binds” throughout.

In the case of B4, the “percent bound (D1/D2 and F/E/G added together)” value in [6] was determined as 53.5%. Besides, the “stoichiometry N” value in “SEC” turned out to be 6. In [7], this molecule gave a percent bound of 14.1%.

Regarding B5, the “percent bound (D1/D2 and F/E/G added together)” value in data set [8] turned out to be 95%; in data set [6], 59%. In addition, the results for the percent bound in data set [2] and in [7] were 100% and 19.8%, respectively.

(Values after PMC10470402 (iScience, 2023).)
